Assay results reported in article PMC5736220.

Biological target: protocadherin-15 EC1+2 R113G, His-tagged (mouse), Q99PJ1
Experiment: thermal scanning (thermal stability shift assay with SYPRO orange); pcdh15 fixed at 0.1 mg/mL (~4 μM), cdh23 0.1 to 0.5 mg/mL (~4 to 20 μM; cdh23:pcdh15 1:1 to 5:1); SEC buffer (20 mM Tris-HCl pH 7.5, 150 mM KCl, 50 mM NaCl, 2 mM CaCl2); 10 to 95°C in 0.2°C steps, 5 s equilibration; read-out: shift of the Tm of pcdh15 (ΔTm)
Details: remark: other sources report otherwise

B1: cadherin-23 EC1+2, wild type, His-tagged, Q99PF4 24-228 (domain or fragment)
chain: QVNRLPFFTNHFFDTYLLISEDTPVGSSVTQLLARDMDNDPLVFGVSGEEASRFFAVEPDTGVVWLRQPLDRETKSEFTVEFSVSDHQGVITRKVNIQVGDVNDNAPTFHNQPYSVRIPENTPVGTPIFIVNATDPDLGAGGSVLYSFQPPSPFFAIDSARGIVTVIQELDYEVTQAYQLTVNATDQDKTRPLSTLANLAIIITD
ΔTm of pcdh15 at cdh23:pcdh15 1:1: -0.6 °C | ΔTm of pcdh15 at cdh23:pcdh15 2:1: 0.2 °C | ΔTm of pcdh15 at cdh23:pcdh15 3:1: 1 °C | ΔTm of pcdh15 at cdh23:pcdh15 4:1: 1.3 °C | ΔTm of pcdh15 at cdh23:pcdh15 5:1: 1.5 °C
